Experimental findings from patent publication US20240043505A1 are described below.

Some targets named below: N501Y; N439K; Y453F; K417N; A475V.
Settings in all cases: remark: other sources report otherwise
In assay [1] the target is T1, SARS-CoV-2 spike receptor-binding domain (RBD) (SARS-CoV-2), P0DTC2.
The target of assay [2] is T1, SARS-CoV-2 spike receptor-binding …. The source holds these as a separate data set.
Assay [3] has the same target. The assay is described as follows: indirect ELISA on coated RBD ('ELISA affinity'). (In general: An ELISA detects its analyte on a solid surface through an enzyme-linked reagent.)
For assay [4] the target is unchanged. Briefly: ELISA; the sheet does not name the coated protein, the legend paragraph 51 says RBD.
Assay [5] has the same target. The source holds these as a separate data set.
For assay [6] the target is unchanged. The assay is described as follows: SPR (Biacore 3000), RBD immobilised.

As usually defined, the EC50 (read off the curve) is the concentration giving half of the maximal effect. High values mean weaker potency, low ones greater potency. As usually defined, the IC50 is the point on the concentration scale where inhibition reaches its midpoint. A low value points to higher potency. The Kd is the free concentration of one partner at which half of the binding sites on the other are occupied at equilibrium, for simple one-to-one binding. The term koff denotes the rate constant with which the complex falls apart. What is called kon is a measure of how fast the partners come together. A higher kon goes with fast association.

Read-outs that look alike come from different tables or passages of the source.

B1: Nb17 (VHH)
VHH: HVQLVESGGGLVQAGGSLRLSCAASGSIFSSNAMSWYRQAPGKQRELVASITSGGNADYADSVKGRFTISRDKNTVYPEMSSLKPADTAVYYCHAVGQEASAYAPRAYWGQGTQVTVSS
The molecule B1 registered an EC50 (read off the curve) in assay [1] of 1 nM. For the same molecule, the binding affinity fold change relative to RBD WT in the assay with N501Y is 1.5 fold; in the assay with N439K, 1.33 fold; with Y453F it was 1.61 fold; with K417N, -1.2 fold; with A475V, 1.16 fold. The values for the IC50 in [2] and in assay [3] were 0.69 nM and 0.45 nM, respectively.

B2: Nb21 (VHH)
VHH: QVQLVESGGGLVQAGGSLRLSCAVSGLGAHRVGWFRRAPGKEREFVAAIGANGGNTNYLDSVKGRFTISRDNAKNTIYLQMNSLKPQDTAVYYCAARDIETAEYTYWGQGTQVTVSS
As for B2, the binding affinity fold change relative to RBD WT with N501Y is -2.83 fold; with N439K, 1.18 fold; with Y453F, 1.04 fold; with K417N, -1.43 fold; with A475V, -1.31 fold. Further, the EC50 (read off the curve) in assay [4] is 5 nM; in assay [5], 1 nM. The 50% inhibitory concentration (IC50) in [2] is 0.42 nM; in assay [3] it was 0.3 nM. Moreover, the Kd in [6] was less than 0.001 nM. In [6], this molecule displayed a koff of less than 1e-06 s⁻¹. The molecule further yielded a kon in assay [6] of 3.79e+06 M⁻¹ s⁻¹.
